Laboratory results: the supplement of paper PMC10899765

Tests used:
Conditions in all cases: 20 nM; 72 h
[1] = tested on: MCF10A; assay: 5+ nucleoli phenotype percent effect (relative to siNT 0% and siKIF11 100%); higher = more cells with five or more nucleoli
Method: (§1)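 After 72 h, cells were fixed and stained with Hoechst and anti-fibrillarin, and nucleoli per nucleus were counted with CellProfiler. Values are plate-adjusted percent effect for the one-nucleolus and 5+ nucleoli phenotypes, normalised to siNT (0%) and to the positive controls siNOL11 or siKIF11 (100%), as the mean of biological triplicates. Percent viability is the nuclei count relative to siNT.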

[2] = tested on: MCF10A; assay: percent viability (nuclei count relative to siNT); higher = more viable cells
Method: as §1

[3] = tested on: MCF10A; assay: one-nucleolus phenotype percent effect (relative to siNT 0% and siNOL11 100%); higher = more cells with one nucleolus (ribosome biogenesis inhibition)
Method: as §1

Sequence | 5+ nucleoli phenotype percent effect [1] [%] | percent viability [2] [%] | one-nucleolus phenotype percent effect [3] [%]
GAGGUUUGGGGAGGAUUUGCU [hsa-miR-4748] | -23.1 | 24.1 | 39.1
GAGGUUUUCUGGGUUUCUGUUUC [hsa-miR-329-5p] | 17.3 | 56 | -9.91
GAGUGCCUUCUUUUGGAGCGUU [hsa-miR-515-3p] | 9.82 | 50.3 | -6.31
GAGUGGAUAGGGGAGUGUGUGGA [hsa-miR-6849-5p] | 31 | 126 | -18.4
GAGUGGGGCUUCGACCCUAACC [hsa-miR-1296-3p] | -0.672 | 62.8 | 8.1
GAGUGUAGUUCUGAGCAGAGC [hsa-miR-4280] | -17.9 | 29.9 | 18.3
GAGUUCUACAGUCAGAC [hsa-miR-3168] | -12.9 | 22.3 | -2.63
GAUAUCAGCUCAGUAGGCACCG [hsa-miR-3074-3p] | 2.53 | 25.1 | -9.52
GAUAUUCAGAGGCUAGGUGG [hsa-miR-6074] | -1.31 | 34.5 | -6.04
GAUCCAUCUCUGCCUGUAUUGGC [hsa-miR-7151-5p] | -8.39 | 80.6 | 5.88
GAUCCCUUUAUCUGUCCUCUAG [hsa-miR-6866-3p] | 77.6 | 112 | -33.5
GAUCUCACUUUGUUGCCCAGG [hsa-miR-1285-5p] | 15.8 | 43.4 | -20.8
GAUGAGCUCAUUGUAAUAUGAG [hsa-miR-556-5p] | 8.79 | 111 | -2.48
GAUGAUGAUGGCAGCAAAUUCUGAAA [hsa-miR-1272] | 4.28 | 76.8 | 8.72
GAUGAUGCUGCUGAUGCUG [hsa-miR-1322] | -20.7 | 41.1 | 24.5
GAUGCGCCGCCCACUGCCCCGCGC [hsa-miR-4787-3p] | 33.1 | 76.2 | -16.2
GAUGGUUGACCAGAGAGCACAC [hsa-miR-758-5p] | 60.1 | 56.6 | -21.1
GAUUGAGACUAGUAGGGCUAGGC [hsa-miR-4461] | -3.16 | 31.4 | 3.4
GAUUUCAGUGGAGUGAAGUUC [hsa-miR-205-3p] | 51.7 | 133 | -30.2
GCAAAGCACACGGCCUGCAGAGA [hsa-miR-330-3p] | 16.5 | 83.2 | -7.99
GCACCCAGGCAAGGAUUCUG [hsa-miR-500b-3p] | -15.3 | 76.8 | 11.8
GCAGAGAACAAAGGACUCAGU [hsa-miR-3919] | -14.9 | 23.3 | 38.7
GCAGAGUGCAAACAAUUUUGAC [hsa-miR-759] | 51.1 | 90.2 | -27.2
GCAGAUCAGGACUGUAACUCACC [hsa-miR-1288-5p] | 31.1 | 48.5 | -14.5
GCAGCAGAGAAUAGGACUACGUC [hsa-miR-922] | 9.43 | 108 | -15
GCAGCAGGGUGAAACUGACACA [hsa-miR-761] | 9.29 | 56.9 | 4.85
GCAGCAUUCAUGUCCC [hsa-miR-4310] | 17.2 | 62.6 | -11
GCAGCCCAGCUGAGGCCUCUG [hsa-miR-4690-3p] | 21.1 | 119 | -17.1
GCAGGAACUUGUGAGUCUCCU [hsa-miR-873-5p] | 31.2 | 122 | -17.4
GCAGGACAGGCAGAAGUGGAU [hsa-miR-4436a] | 32.1 | 105 | -24.9
